In the supplement of paper PMC9170038:

Tested on: MS2 coat protein
Assay: apparent KD of MS2 coat protein; higher = weaker reporter binding
Conditions: Eterna round: R107
Outline: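 Designed RNA switches were transcribed on-chip from Illumina sequencing clusters. They were then titrated with SNAP-549-labelled MS2 coat protein (twofold steps, 0.7 or 1.5 nM to 3 µM; 0.8–1.5 h to 10–20 min per step) in 100 mM Tris-HCl pH 7.5, 80 mM KCl, 4 mM MgCl2, without or with constant ligand. Apparent KD is the per-design median of normalised cluster binding-curve fits.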

[1] = input ligand: theophylline 20 uM
[2] = input ligand: theophylline 2 mM
[3] = input ligand: tryptophan 2.4 mM

Sequence	apparent KD of MS2 coat protein (input ligand: arginine 13.2 mM) [nM]	apparent KD of MS2 coat protein [1] [nM]	apparent KD of MS2 coat protein [2] [nM]	apparent KD of MS2 coat protein [3] [nM]	apparent KD of MS2 coat protein (input ligand: none) [nM]
GUUUUAUACUCGGCCGCCACUGAGAGAGUCAUGUAAACAUGAGGAUCACCCAUGUAAUAUAUAUACAGGACCGGGAGUAGGGUAA [4.F]	10.1	16.1	12.2		
AUAAGUAAUGUCUCGUGUAUUAUUACAGAUACCAGACUAUCCUAUGUCCCUUGGCAGCUGGAUUACAUGAGGAUCACCCAUGUGG [#11 Exclusion-TheophyllineA]	37.6	49.5		42	
ACAUGAGGAUCACCCAUGUCAUGAGGUUCACGAGGACCGGUACGGCCGCCACUCGACAUGAGGGUCACCCGUGAACGGAACACCC [kpmullin]	14.7	23.6	17.7		
GCCGGGCCCGCGGCCGCCACUGAGAGAGUCGUGUGAACAUGAGGAUCACCCAUGUAAUAUAUAUACAGGACCGGGCGGGCCCGGC [4.X]	13.8	20.1	15.7	13.9	10.4
UCCUGCAGAGCGGCCGCCACUGUGUUGCGUGAGGAUGACCCAACAUGAGGAUCACCCAUGUUGUUUAGGACCGGGCUUGCCUCGA [xcmulliny]	12	17.2	15.5		
CGCCGAGAGGGAAGGAGCGCGAUAACAUAACAUGAGGAUCACCCAUGUAAGAAAUUAAUCAUGCAGGUAGGUCGCCCAAGCGGCG [Same State Arginine B GF 3]	15	23.8	19.4	14.9	15.1
UAGAUAGAGGGAAGGAGCGCGAUAACAUAACAUGAGGAUCACCCAUGUAAGAAAUUAAUAAUGCAGGUAGGUCGCCCAAGAUGAU [Same State Arginine B gf1]	8.76	15.1	19	17.1	14.5
UCACGACGCAUGGAUACCAGCGACAUGAGGAUCACCCAUGUAUGAGGAUCAGCCAUGUUAUGCCCUUGGCAGCCACGAAGGUCAU [KNKMULLIN]	14.2	20.1		15.8	
AAGUGGCACGGAAGGAGCGAGUUUACCUAAAUAACAUGAGGAUCACCCAUGUAUAAUGGGACUCAGGUAGGUCGCCGUUGUCACU [Same State Arginine B GF 23]	22.9	43.1	28.8	33	29.3
GACAUGAGGAUCACCCAUGUACCGCGAGAAGGAGCGCGGAUAAACGCAGGUAGGUCGCUCGUGGGCUUACAUUCAAGUGUAAGCU [Usarat]	49	143	118	31.3	106
ACAUGAGGAUCACCCAUGUGAAGCAGGGUACGAGGACCGGUACGGCCGCCACUCGAACAUUAUAACGAGUGAAUGGCAACGAUGU [B15Jan]	15.7	18.5	13.8		
ACAUGAGGAUCACCCAUGUAACGGCAUAAUCGAGGACCGGUACGGCCGCCACUCGGAAUCAGUGACAGGCAUAUUUAUUAUAAGA [Eclusion - Tryptophan A / A]	12	15.6	11.5		
UCGGGCAGAGCGGCCGCCACUGUUUGGCGUGCGGAUGACGGAACAUGAGGAUCACCCAUGUUGUUUAGGACCGGGCUUGCGGCGU [ipimullin]	12.1	16.7	14	12.1	12.7
GUCUGUGUCUGAAGGAGCGACAUGAGGAUCACCCAUGUCUCCCGUUAUGGGAGUUCCUUAGGUCAGGUAGGUCGCAGACACAGAC [#1 Exclusion - Arginine B Attempt #27 (Inspired by Omei)]	110	164	187	107	123
AGCCAUGGAAACAUGGCGGCGGCUUGGGCGCGAGGACCGGUACGGCCGCCACUCGGGCAACAUGAGGAUCACCCAUGUUCCUCAU [ETA NP+V+V2 #18]	84.6	245	317	161	128
